Values of other authors as cited in PMC4115806.

Target: EPCR (Homo sapiens) (UniProt Q9UNN8)
Sequence (Q9UNN8 18-210): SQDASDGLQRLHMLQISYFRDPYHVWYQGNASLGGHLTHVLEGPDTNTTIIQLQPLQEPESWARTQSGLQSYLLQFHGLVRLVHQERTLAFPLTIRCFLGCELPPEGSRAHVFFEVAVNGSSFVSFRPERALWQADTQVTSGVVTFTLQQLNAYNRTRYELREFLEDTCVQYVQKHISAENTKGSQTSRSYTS

Sequence of protein C (P04070 43-197): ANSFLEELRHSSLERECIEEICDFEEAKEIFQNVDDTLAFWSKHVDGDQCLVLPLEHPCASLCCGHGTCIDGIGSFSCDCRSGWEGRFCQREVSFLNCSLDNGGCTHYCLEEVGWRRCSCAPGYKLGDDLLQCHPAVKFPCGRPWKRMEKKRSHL

Kd: 30 nM
Substance: protein C (from UniProt P04070)
